According to patent publication US20240343814A1:

Legend:
[1] = molecular target: Recombinant human his-tagged IGF 1R extracellular domain protein (human) (UniProt P08069); test: SPR, captured IgG, IGF-1R ECD-his analyte, dissociation pH 7.4
[2] = molecular target: Recombinant human his-tagged IGF 1R extracellular domain protein (human) (UniProt P08069); test: SPR, captured IgG, IGF-1R ECD-his analyte, dissociation pH 6

| Kd [1] | koff [1] | kon [1] | Kd [2] | koff [2] | kon [2] | Binder |
| --- | --- | --- | --- | --- | --- | --- |
| 0.717 nM | 2.74e-05 s⁻¹ | 38200 M⁻¹ s⁻¹ | 0.036 nM | 1e-06 s⁻¹ | 27800 M⁻¹ s⁻¹ | VRDN-02523 (antibody, V domains shown) VH: EVQLVQSGGGLVKPGGSLRLSCAASGFTFSSFAMHWVRQAPGKGLEWISVIDTRGATYYADSVKGRFTISRDNAKNSLYLQMNSLRAEDTAVYYCARLGNFYHGMDVWGQGTTVTVSS VL: EIVLTQSPGTLSVSPGERATLSCRASQSIGSSLHWYQQKPGQAPRLLIKYASQSLSGIPDRFSGSGSGTDFTLTISRLEPEDFAVYYCHQSSRLPHTFGQGTKVEIK |
| 0.00752 nM | 1e-06 s⁻¹ | 133000 M⁻¹ s⁻¹ | 1.22 nM | 4.66e-05 s⁻¹ | 38300 M⁻¹ s⁻¹ | VRDN-02524 (antibody, V domains shown) VH: EVQLVQSGGGLVKPGGSLRLSCAASGFTFSSFAMHWVRQAPGKGLEWISVIDTRGATYYADSVKGRFTISRDNAKNSLYLQMNSLRAEDTAVYYCARLGNFYYHMDVWGQGTTVTVSS VL: EIVLTQSPGTLSVSPGERATLSCRASQSIGSSLHWYQQKPGQAPRLLIKYASQSLSGIPDRFSGSGSGTDFTLTISRLEPEDFAVYYCHQSSRLPHTFGQGTKVEIK |
| 0.85 nM | 2.1e-05 s⁻¹ | 24700 M⁻¹ s⁻¹ | 0.0319 nM | 1e-06 s⁻¹ | 31300 M⁻¹ s⁻¹ | VRDN-02531 (antibody, V domains shown) VH: EVQLVQSGGGLVKPGGSLRLSCAASGFTFSSFAMHWVRQAPGKGLEWISVIDTRGATYYADSVKGRFTISRDNAKNSLYLQMNSLRAEDTAVYYCARLGNFYYGMDVWGQGTTVTVSS VL: EIVLTQSPGTLSVSPGERATLSCRASHSIGSSLHWYQQKPGQAPRLLIKYASQSLSGIPDRFSGSGSGTDFTLTISRLEPEDFAVYYCHQSSRLPHTFGQGTKVEIK |
| 0.00758 nM | 1e-06 s⁻¹ | 132000 M⁻¹ s⁻¹ | 4.58 nM | 0.000147 s⁻¹ | 32100 M⁻¹ s⁻¹ | VRDN-02525 (antibody, V domains shown) VH: EVQLVQSGGGLVKPGGSLRLSCAASGFTFSSFAMHWVRQAPGKGLEWISVIDTRGATYYADSVKGRFTISRDNAKNSLYLQMNSLRAEDTAVYYCARLGNFYYGHDVWGQGTTVTVSS VL: EIVLTQSPGTLSVSPGERATLSCRASQSIGSSLHWYQQKPGQAPRLLIKYASQSLSGIPDRFSGSGSGTDFTLTISRLEPEDFAVYYCHQSSRLPHTFGQGTKVEIK |
| 0.102 nM | 1.53e-05 s⁻¹ | 150000 M⁻¹ s⁻¹ | 0.029 nM | 1e-06 s⁻¹ | 34500 M⁻¹ s⁻¹ | VRDN-02530 (antibody, V domains shown) VH: EVQLVQSGGGLVKPGGSLRLSCAASGFTFSSFAMHWVRQAPGKGLEWISVIDTRGATYYADSVKGRFTISRDNAKNSLYLQMNSLRAEDTAVYYCARLGNFYYGMDVWGQGTTVTVSS VL: EIVLTQSPGTLSVSPGERATLSCRAHQSIGSSLHWYQQKPGQAPRLLIKYASQSLSGIPDRFSGSGSGTDFTLTISRLEPEDFAVYYCHQSSRLPHTFGQGTKVEIK |
| 0.252 nM | 3.55e-05 s⁻¹ | 141000 M⁻¹ s⁻¹ | 0.0246 nM | 1e-06 s⁻¹ | 40600 M⁻¹ s⁻¹ | VRDN-02528 (antibody, V domains shown) VH: EVQLVQSGGGLVKPGGSLRLSCAASGFTFSSFAMHWVRQAPGKGLEWISVIDTRGATYYADSVKGRFTISRDNAKNSLYLQMNSLRAEDTAVYYCARLGNFYYGMDVWGQGTTVTVSS VL: EIVLTQSPGTLSVSPGERATLSCHASQSIGSSLHWYQQKPGQAPRLLIKYASQSLSGIPDRFSGSGSGTDFTLTISRLEPEDFAVYYCHQSSRLPHTFGQGTKVEIK |
| 0.225 nM | 2.16e-05 s⁻¹ | 95900 M⁻¹ s⁻¹ | 0.0258 nM | 1e-06 s⁻¹ | 38800 M⁻¹ s⁻¹ | VRDN-02527 (antibody, V domains shown) VH: EVQLVQSGGGLVKPGGSLRLSCAASGFTFSSFAMHWVRQAPGKGLEWISVIDTRGATYYADSVKGRFTISRDNAKNSLYLQMNSLRAEDTAVYYCARLGNFYYGMDHWGQGTTVTVSS VL: EIVLTQSPGTLSVSPGERATLSCRASQSIGSSLHWYQQKPGQAPRLLIKYASQSLSGIPDRFSGSGSGTDFTLTISRLEPEDFAVYYCHQSSRLPHTFGQGTKVEIK |
| 0.37 nM | 1.73e-05 s⁻¹ | 46700 M⁻¹ s⁻¹ | 0.0376 nM | 1e-06 s⁻¹ | 26600 M⁻¹ s⁻¹ | VRDN-02522 (antibody, V domains shown) VH: EVQLVQSGGGLVKPGGSLRLSCAASGFTFSSFAMHWVRQAPGKGLEWISVIDTRGATYYADSVKGRFTISRDNAKNSLYLQMNSLRAEDTAVYYCARLGNFHYGMDVWGQGTTVTVSS VL: EIVLTQSPGTLSVSPGERATLSCRASQSIGSSLHWYQQKPGQAPRLLIKYASQSLSGIPDRFSGSGSGTDFTLTISRLEPEDFAVYYCHQSSRLPHTFGQGTKVEIK |
| 3.8 nM | 0.000103 s⁻¹ | 27100 M⁻¹ s⁻¹ | 0.0541 nM | 1e-06 s⁻¹ | 18500 M⁻¹ s⁻¹ | VRDN-02529 (antibody, V domains shown) VH: EVQLVQSGGGLVKPGGSLRLSCAASGFTFSSFAMHWVRQAPGKGLEWISVIDTRGATYYADSVKGRFTISRDNAKNSLYLQMNSLRAEDTAVYYCARLGNFYYGMDVWGQGTTVTVSS VL: EIVLTQSPGTLSVSPGERATLSCRHSQSIGSSLHWYQQKPGQAPRLLIKYASQSLSGIPDRFSGSGSGTDFTLTISRLEPEDFAVYYCHQSSRLPHTFGQGTKVEIK |

The remaining lines, values behind:

| Binder | Kd [1] | koff [1] | kon [1] | Kd [2] | koff [2] | kon [2] |
| --- | --- | --- | --- | --- | --- | --- |
| VRDN-02516 (antibody, V domains shown) VH: EVQLVQSGGGLVKPGGSLRLSCAASGFTFSSFAMHWVRQAPGKGLEWISVIDTRGATYYADSVKGRFTISRDNAKNSLYLQMNSLRAEDTAVYYCHRLGNFYYGMDVWGQGTTVTVSS VL: EIVLTQSPGTLSVSPGERATLSCRASQSIGSSLHWYQQKPGQAPRLLIKYASQSLSGIPDRFSGSGSGTDFTLTISRLEPEDFAVYYCHQSSRLPHTFGQGTKVEIK | 2.35 nM | 0.000418 s⁻¹ | 178000 M⁻¹ s⁻¹ | 16.8 nM | 0.00196 s⁻¹ | 117000 M⁻¹ s⁻¹ |
| VRDN-02521 (antibody, V domains shown) VH: EVQLVQSGGGLVKPGGSLRLSCAASGFTFSSFAMHWVRQAPGKGLEWISVIDTRGATYYADSVKGRFTISRDNAKNSLYLQMNSLRAEDTAVYYCARLGNHYYGMDVWGQGTTVTVSS VL: EIVLTQSPGTLSVSPGERATLSCRASQSIGSSLHWYQQKPGQAPRLLIKYASQSLSGIPDRFSGSGSGTDFTLTISRLEPEDFAVYYCHQSSRLPHTFGQGTKVEIK | 1.48 nM | 7.2e-05 s⁻¹ | 48500 M⁻¹ s⁻¹ | 0.05 nM | 1e-06 s⁻¹ | 20000 M⁻¹ s⁻¹ |
| VRDN-02518 (antibody, V domains shown) VH: EVQLVQSGGGLVKPGGSLRLSCAASGFTFSSFAMHWVRQAPGKGLEWISVIDTRGATYYADSVKGRFTISRDNAKNSLYLQMNSLRAEDTAVYYCARHGNFYYGMDVWGQGTTVTVSS VL: EIVLTQSPGTLSVSPGERATLSCRASQSIGSSLHWYQQKPGQAPRLLIKYASQSLSGIPDRFSGSGSGTDFTLTISRLEPEDFAVYYCHQSSRLPHTFGQGTKVEIK | 0.549 nM | 6.31e-05 s⁻¹ | 115000 M⁻¹ s⁻¹ | 0.0385 nM | 1e-06 s⁻¹ | 26000 M⁻¹ s⁻¹ |
| VRDN-02520 (antibody, V domains shown) VH: EVQLVQSGGGLVKPGGSLRLSCAASGFTFSSFAMHWVRQAPGKGLEWISVIDTRGATYYADSVKGRFTISRDNAKNSLYLQMNSLRAEDTAVYYCARLGHFYYGMDVWGQGTTVTVSS VL: EIVLTQSPGTLSVSPGERATLSCRASQSIGSSLHWYQQKPGQAPRLLIKYASQSLSGIPDRFSGSGSGTDFTLTISRLEPEDFAVYYCHQSSRLPHTFGQGTKVEIK | 0.0069 nM | 1e-06 s⁻¹ | 145000 M⁻¹ s⁻¹ | 0.0242 nM | 1e-06 s⁻¹ | 41400 M⁻¹ s⁻¹ |
| VRDN-02517 (antibody, V domains shown) VH: EVQLVQSGGGLVKPGGSLRLSCAASGFTFSSFAMHWVRQAPGKGLEWISVIDTRGATYYADSVKGRFTISRDNAKNSLYLQMNSLRAEDTAVYYCAHLGNFYYGMDVWGQGTTVTVSS VL: EIVLTQSPGTLSVSPGERATLSCRASQSIGSSLHWYQQKPGQAPRLLIKYASQSLSGIPDRFSGSGSGTDFTLTISRLEPEDFAVYYCHQSSRLPHTFGQGTKVEIK | 10.7 nM | 0.00264 s⁻¹ | 247000 M⁻¹ s⁻¹ | 5.07 nM | 0.000265 s⁻¹ | 52300 M⁻¹ s⁻¹ |
| VRDN-02503 (antibody, V domains shown) VH: EVQLVQSGGGLVKPGGSLRLSCAASGFHFSSFAMHWVRQAPGKGLEWISVIDTRGATYYADSVKGRFTISRDNAKNSLYLQMNSLRAEDTAVYYCARLGNFYYGMDVWGQGTTVTVSS VL: EIVLTQSPGTLSVSPGERATLSCRASQSIGSSLHWYQQKPGQAPRLLIKYASQSLSGIPDRFSGSGSGTDFTLTISRLEPEDFAVYYCHQSSRLPHTFGQGTKVEIK | 1.53 nM | 0.000161 s⁻¹ | 105000 M⁻¹ s⁻¹ | 0.0262 nM | 1e-06 s⁻¹ | 38100 M⁻¹ s⁻¹ |
| VRDN-02519 (antibody, V domains shown) VH: EVQLVQSGGGLVKPGGSLRLSCAASGFTFSSFAMHWVRQAPGKGLEWISVIDTRGATYYADSVKGRFTISRDNAKNSLYLQMNSLRAEDTAVYYCARLHNFYYGMDVWGQGTTVTVSS VL: EIVLTQSPGTLSVSPGERATLSCRASQSIGSSLHWYQQKPGQAPRLLIKYASQSLSGIPDRFSGSGSGTDFTLTISRLEPEDFAVYYCHQSSRLPHTFGQGTKVEIK | 10.5 nM | 0.00366 s⁻¹ | 348000 M⁻¹ s⁻¹ | 16.9 nM | 0.000627 s⁻¹ | 37100 M⁻¹ s⁻¹ |
| VRDN-02502 (antibody, V domains shown) VH: EVQLVQSGGGLVKPGGSLRLSCAASGHTFSSFAMHWVRQAPGKGLEWISVIDTRGATYYADSVKGRFTISRDNAKNSLYLQMNSLRAEDTAVYYCARLGNFYYGMDVWGQGTTVTVSS VL: EIVLTQSPGTLSVSPGERATLSCRASQSIGSSLHWYQQKPGQAPRLLIKYASQSLSGIPDRFSGSGSGTDFTLTISRLEPEDFAVYYCHQSSRLPHTFGQGTKVEIK | 0.0244 nM | 4.1e-06 s⁻¹ | 168000 M⁻¹ s⁻¹ | 0.0375 nM | 1e-06 s⁻¹ | 26700 M⁻¹ s⁻¹ |
